The chains are these.
B1: bacteriophage φ6 protein P1 (capsid shell), wild type (natural protein, UniProt P11126 1-769, looked up)
chain: MFNLKVKDLNGSARGLTQAFAIGELKNQLSVGALQLPLQFTRTFSASMTSELLWEVGKGNIDPVMYARLFFQYAQAGGALSVDELVNQFTEYHQSTACNPEIWRKLTAYITGSSNRAIKADAVGKVPPTAILEQLRTLAPSEHELFHHITTDFVCHVLSPLGFILPDAAYVYRVGRTATYPNFYALVDCVRASDLRRMLTALSSVDSKMLQATFKAKGALAPALISQHLANAATTAFERSRGNFDANAVVSSVLTILGRLWSPSTPKELDPSARLRNTNGIDQLRSNLALFIAYQDMVKQRGRAEVIFSDEELSSTIIPWFIEAMSEVSPFKLRPINETTSYIGQTSAIDHMGQPSHVVVYEDWQFAKEITAFTPVKLANNSNQRFLDVEPGISDRMSATLAPIGNTFAVSAFVKNRTAVYEAVSQRGTVNSNGAEMTLGFPSVVERDYALDRDPMVAIAALRTGIVDESLEARASNDLKRSMFNYYAAVMHYAVAHNPEVVVSEHQGVAAEQGSLYLVWNVRTELRIPVGYNAIEGGSIRTPEPLEAIAYNKPIQPSEVLQAKVLDLANHTTSIHIWPWHEASTEFAYEDAYSVTIRNKRYTAEVKEFELLGLGQRRERVRILKPTVAHAIIQMWYSWFVEDDRTLAAARRTSRDDAEKLAIDGRRMQNAVTLLRKIEMIGTTGIGASAVHLAQSRIVDQMAGRGLIDDSSDLHVGINRHRIRIWAGLAVLQMMGLLSRSEAEALTKVLGDSNALGMVVATTDIDPSL
B2: bacteriophage φ6 protein P1 with the E390A substitution (natural protein, UniProt P11126 1-769, looked up)
chain: MFNLKVKDLNGSARGLTQAFAIGELKNQLSVGALQLPLQFTRTFSASMTSELLWEVGKGNIDPVMYARLFFQYAQAGGALSVDELVNQFTEYHQSTACNPEIWRKLTAYITGSSNRAIKADAVGKVPPTAILEQLRTLAPSEHELFHHITTDFVCHVLSPLGFILPDAAYVYRVGRTATYPNFYALVDCVRASDLRRMLTALSSVDSKMLQATFKAKGALAPALISQHLANAATTAFERSRGNFDANAVVSSVLTILGRLWSPSTPKELDPSARLRNTNGIDQLRSNLALFIAYQDMVKQRGRAEVIFSDEELSSTIIPWFIEAMSEVSPFKLRPINETTSYIGQTSAIDHMGQPSHVVVYEDWQFAKEITAFTPVKLANNSNQRFLDVAPGISDRMSATLAPIGNTFAVSAFVKNRTAVYEAVSQRGTVNSNGAEMTLGFPSVVERDYALDRDPMVAIAALRTGIVDESLEARASNDLKRSMFNYYAAVMHYAVAHNPEVVVSEHQGVAAEQGSLYLVWNVRTELRIPVGYNAIEGGSIRTPEPLEAIAYNKPIQPSEVLQAKVLDLANHTTSIHIWPWHEASTEFAYEDAYSVTIRNKRYTAEVKEFELLGLGQRRERVRILKPTVAHAIIQMWYSWFVEDDRTLAAARRTSRDDAEKLAIDGRRMQNAVTLLRKIEMIGTTGIGASAVHLAQSRIVDQMAGRGLIDDSSDLHVGINRHRIRIWAGLAVLQMMGLLSRSEAEALTKVLGDSNALGMVVATTDIDPSL

Assay in all cases: cryo-EM structure
Data set [1] deals with the molecule itself.
Data set [2] deals with the molecule itself. This is another data set of the same source.
The target of data set [3] is B2.
For data set [4], the target named is B1.

Where two headings read alike, the source gives them in different places.

As to B1, the binding result in the data set “cryo-EM structure [1]” is listed as “binds”.

In the case of B2, the binding result in the data set “cryo-EM structure [2]” is reported as “binds”.

B3: bacteriophage φ6 protein P2 (RNA-dependent RNA polymerase) (enzyme, UniProt P11124 1-665, looked up)
chain: MPRRAPAFPLSDIKAQMLFANNIKAQQASKRSFKEGAIETYEGLLSVDPRFLSFKNELSRYLTDHFPANVDEYGRVYGNGVRTNFFGMRHMNGFPMIPATWPLASNLKKRADADLADGPVSERDNLLFRAAVRLMFSDLEPVPLKIRKGSSTCIPYFSNDMGTKIEIAERALEKAEEAGNLMLQGKFDDAYQLHQMGGAYYVVYRAQSTDAITLDPKTGKFVSKDRMVADFEYAVTGGEQGSLFAASKDASRLKEQYGIDVPDGFFCERRRTAMGGPFALNAPIMAVAQPVRNKIYSKYAYTFHHTTRLNKEEKVKEWSLCVATDVSDHDTFWPGWLRDLICDELLNMGYAPWWVKLFETSLKLPVYVGAPAPEQGHTLLGDPSNPDLEVGLSSGQGATDLMGTLLMSITYLVMQLDHTAPHLNSRIKDMPSACRFLDSYWQGHEEIRQISKSDDAILGWTKGRALVGGHRLFEMLKEGKVNPSPYMKISYEHGGAFLGDILLYDSRREPGSAIFVGNINSMLNNQFSPEYGVQSGVRDRSKRKRPFPGLAWASMKDTYGACPIYSDVLEAIERCWWNAFGESYRAYREDMLKRDTLELSRYVASMARQAGLAELTPIDLEVLADPNKLQYKWTEADVSANIHEVLMHGVSVEKTERFLRSVMPR
On to B3, for which the binding result in data set [3] is “binds”.

B4: bacteriophage φ6 protein P4 (packaging motor, packaging NTPase) (enzyme, UniProt P11125 1-332, looked up)
chain: MPIVVTQAHIDRVGIAADLLDASPVSLQVLGRPTAINTVVIKTYIAAVMELASKQGGSLAGVDIRPSVLLKDTAIFTKPKAKSADVESDVDVLDTGIYSVPGLARKPVTHRWPSEGIYSGVTALMGATGSGKSITLNEKLRPDVLIRWGEVAEAYDELDTAVHISTLDEMLIVCIGLGALGFNVAVDSVRPLLFRLKGAASAGGIVAVFYSLLTDISNLFTQYDCSVVMVVNPMVDAEKIEYVFGQVMASTVGAILCADGNVSRTMFRTNKGRIFNGAAPLAADTHMPSMDRPTSMKALDHTSIASVAPLERGSVDTDDRNSAPRRGANFSL
Turning to B4, the binding result (in data set [4]; in “cryo-EM structure [1]”; in data set [3]) was “binds” in each case.

The values are drawn from article PMC3223026 (Journal of molecular biology, 2011).
